Laboratory results published in paper PMC12809092, “A bispecific antibody designed to act as a NRP2/PLXNA1 agonist mimics anticancer activity of SEMA3F” (The Journal of Biological Chemistry, 2025).
Blank lines part the entries; values can stand above or below the binder they belong to.

Experiments:
[1] = molecular target: T1, hNRP2_ECD, human neuropilin-2 extracellular domain (Homo sapiens, UniProt O60462); test: BLI; affinity of aNRP2 mAbs to hNRP2_ECD, shown as KD; as previously described; mean ± SEM of at least 3 experiments; conditions: both partners purified
T1 construct: neuropilin-2, human, extracellular domain
T1 sequence (O60462 21-864): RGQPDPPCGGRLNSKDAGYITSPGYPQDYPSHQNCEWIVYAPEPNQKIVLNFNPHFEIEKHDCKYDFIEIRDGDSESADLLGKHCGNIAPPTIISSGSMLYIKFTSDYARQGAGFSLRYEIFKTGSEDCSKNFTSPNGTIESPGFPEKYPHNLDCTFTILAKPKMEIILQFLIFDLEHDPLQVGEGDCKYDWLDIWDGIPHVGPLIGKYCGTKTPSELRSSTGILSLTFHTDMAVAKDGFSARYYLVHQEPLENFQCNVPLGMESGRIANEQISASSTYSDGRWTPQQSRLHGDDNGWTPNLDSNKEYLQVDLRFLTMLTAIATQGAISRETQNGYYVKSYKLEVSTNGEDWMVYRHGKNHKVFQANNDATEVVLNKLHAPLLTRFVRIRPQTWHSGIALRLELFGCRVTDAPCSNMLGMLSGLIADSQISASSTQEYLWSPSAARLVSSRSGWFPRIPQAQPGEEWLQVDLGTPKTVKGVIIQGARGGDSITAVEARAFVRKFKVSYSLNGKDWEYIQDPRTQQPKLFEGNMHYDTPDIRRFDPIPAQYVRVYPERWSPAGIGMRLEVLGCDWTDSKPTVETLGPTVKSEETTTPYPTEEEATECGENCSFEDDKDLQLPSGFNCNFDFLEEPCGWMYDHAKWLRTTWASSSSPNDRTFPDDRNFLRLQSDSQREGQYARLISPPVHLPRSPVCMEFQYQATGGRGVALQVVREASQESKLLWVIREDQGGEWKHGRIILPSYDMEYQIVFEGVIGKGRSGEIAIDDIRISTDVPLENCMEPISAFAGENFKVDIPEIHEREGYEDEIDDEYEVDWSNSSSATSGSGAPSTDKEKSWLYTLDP

[2] = molecular target: T2, PLXNA1-ECD, recombinant human plexinA1 full extracellular domains (Homo sapiens, UniProt Q9UIW2); test: BLI; Octet Red96e; Fab captured on streptavidin tips by biotinylated anti-LC-kappa-murine antibody; PLXNA1 ECD or LBD in solution at 1.85-1350 nM; global fit, 1:1 model; conditions: both partners purified
T2 construct: plexinA1, human, extracellular domains, aa 27-1244; the DNA encoded amino acids 1-1244 of NP_115618.3 (signal peptide removed on secretion); also called hPLXNA1 ECD; source: Expi293F, transfected, purified from culture media (HiTrap MabSelect column)

[3] = molecular target: T3, PLXNA1-LBD, recombinant human plexinA1 ligand-binding domains (human, UniProt Q9UIW2); test: as above; conditions: both partners purified
T3 construct: the DNA encoded amino acids 1-710 of NP_115618.3 (signal peptide removed on secretion); The final cryo-EM model holds only the SEMA and PSI1 domains; also called hPLXNA1 LBD; source: Expi293F, transfected, purified from culture media (HiTrap MabSelect column)

[4] = molecular target: the molecule itself; test: cryo-EM structure; purified complex of PLXNA1-LBD and aPLXNA1-19-43 Fab; 3.33 Å

Kd [1]: 0.33 nM
B1: aNRP2-b2cL, anti-NRP2 mAb (antibody, V domains shown)
VH: QVRLQQPGAELVMPGASVKLSCKASGYTFTSYWMHWVKQRPGQGLEWIGVIHPNSASTFYNERFKTKATLTVDRSSSTAYMQLSSLTSEDSAVYYCSRPGTVRRSDYWGQGTTLTVSS
VL: DVLMTQSPLSLSVSLGDQASISCRSSQNIVHSTGNTYLEWYLQKPGQSPKLLIYKVSNRFSGVPDRFSGSGSGTDFTLKISRVEAEDLGVYYCFQGSHVPWTFGGGTKLEIK
notes: also called Nb2cL

Kd [2]: 2.37 ± 0.78 nM
Kd [3]: 5.99 ± 1.14 nM
B2: aPLXNA1-19-43 Fab (Fab, V domains shown)
VH: EVQLQQSGPELVKPGASVKISCKASGYKFTENYMDWVKQSHGESLEWIGDISPDNGDTSYNQKFRDKATLTVDKSSSTAYMELRSLTSEDSAVYYCAQIIYYDYVGYALDYWGQGTSVTVSS
VL: QIVLTQSPAILSASPGEKVTMSCSVSSSITYMHWYQQKPGTSPKRWIYDTSKLASGVPARFSGSGSGTSFSLTISNMEAEDAATYYCHQRSSYPYSFGGGTKLEIK
notes: VH of aPLXNA1-19-43; also in the deposited structure; constant part of the Fab heavy chain, mouse IgG1 backbone; VL (kappa) of aPLXNA1-19-43; mouse kappa light chain constant region (Fab captured by an anti-LC-kappa-murine antibody); Fab of the mAb aPLXNA1-19-43, the anti-PLXNA1 half of m6; also called aPLXNA1 Fab 19 to 43; aPLXNA1 Fab-P1943; source: Expi293F, transfected, purified from culture …

B3: PLXNA1-LBD, recombinant human plexinA1 ligand-binding domains (domain or fragment, UniProt Q9UIW2 27-710, looked up)
chain: EAGLPRAGGGSQPPFRTFSASDWGLTHLVVHEQTGEVYVGAVNRIYKLSGNLTLLRAHVTGPVEDNEKCYPPPSVQSCPHGLGSTDNVNKLLLLDYAANRLLACGSASQGICQFLRLDDLFKLGEPHHRKEHYLSSVQEAGSMAGVLIAGPPGQGQAKLFVGTPIDGKSEYFPTLSSRRLMANEEDADMFGFVYQDEFVSSQLKIPSDTLSKFPAFDIYYVYSFRSEQFVYYLTLQLDTQLTSPDAAGEHFFTSKIVRLCVDDPKFYSYVEFPIGCEQAGVEYRLVQDAYLSRPGRALAHQLGLAEDEDVLFTVFAQGQKNRVKPPKESALCLFTLRAIKEKIKERIQSCYRGEGKLSLPWLLNKELGCINSPLQIDDDFCGQDFNQPLGGTVTIEGTPLFVDKDDGLTAVAAYDYRGRTVVFAGTRSGRIRKILVDLSNPGGRPALAYESVVAQEGSPILRDLVLSPNHQYLYAMTEKQVTRVPVESCVQYTSCELCLGSRDPHCGWCVLHSICSRRDACERADEPQRFAADLLQCVQLTVQPRNVSVTMSQVPLVLQAWNVPDLSAGVNCSFEDFTESESVLEDGRIHCRSPSAREVAPITRGQGDQRVVKLYLKSKETGKKFASVDFVFYNCSVHQSCLSCVNGSFPCHWCKYRHVCTHNVADCAFLEGRVNVSEDCPQIL
notes: the DNA encoded amino acids 1-710 of NP_115618.3 (signal peptide removed on secretion); The final cryo-EM model holds only the SEMA and PSI1 domains; also called hPLXNA1 LBD; source: Expi293F, transfected, purified from culture media (HiTrap MabSelect column)
stoichiometry N [4]: 2
